From publication PMC11339278 (2024) come the findings set out here.

Experiment [1] has as its target CCDC22 (endogenous). The experiment is described as follows: GFP-nanotrap pull-down, quantitative western blot. As to conditions: HEK293T cells, transient co-transfection; n = 3; parent: est. 1.0; read off a plot. (Immunoblotting shows a protein as a band on a membrane.)
The target of experiment [2] is CCDC93 (endogenous). The experiment is described as follows: GFP-nanotrap pull-down, quantitative western blot. To be noted: HEK293T cells, transient co-transfection; n = 3; parent: est. 1.0; read off a plot.
Experiment [3] concerns the target VPS29 (endogenous). The experiment can be described thus: GFP-nanotrap pull-down, quantitative western blot. As to conditions: HEK293T cells, transient co-transfection; n = 3; parent: est. 1.0; read off a plot.
For experiment [4], the target named is T1, SNX17ΔC (residue 1-390) with an intramolecular decaHis tag (human, UniProt Q15036 1-390).
T1 chain: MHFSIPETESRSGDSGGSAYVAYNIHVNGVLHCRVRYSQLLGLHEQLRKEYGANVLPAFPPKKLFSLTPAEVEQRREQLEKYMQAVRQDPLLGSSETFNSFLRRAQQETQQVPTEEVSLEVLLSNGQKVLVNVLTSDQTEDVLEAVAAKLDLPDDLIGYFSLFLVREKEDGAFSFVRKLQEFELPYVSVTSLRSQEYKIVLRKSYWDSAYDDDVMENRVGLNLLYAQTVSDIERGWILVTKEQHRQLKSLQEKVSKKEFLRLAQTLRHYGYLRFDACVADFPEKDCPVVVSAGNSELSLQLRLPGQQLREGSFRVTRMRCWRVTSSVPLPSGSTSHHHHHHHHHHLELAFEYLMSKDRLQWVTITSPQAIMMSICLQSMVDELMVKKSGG
The experiment can be described thus: ITC. Background: Isothermal titration calorimetry measures the heat released or taken up as one component is titrated into another.

The target of experiment [5] is SNX17ΔC (residue 1-390) with an intramolecular decaHis tag (human) (UniProt Q15036). The experiment is described as follows: ITC; 2 mM SNX17 tail peptide injected into 20 μM SNX17 FL or SNX17ΔC; 13 x 3.22 μL; 10 °C; 500 mM NaCl, 100 mM Tris pH 8.0, 5% glycerol; single site binding model.
In experiment [6] the target is T2, SNX17 full length (residue 1-470) with an intramolecular decaHis tag (human, UniProt Q15036 1-470).
T2 chain: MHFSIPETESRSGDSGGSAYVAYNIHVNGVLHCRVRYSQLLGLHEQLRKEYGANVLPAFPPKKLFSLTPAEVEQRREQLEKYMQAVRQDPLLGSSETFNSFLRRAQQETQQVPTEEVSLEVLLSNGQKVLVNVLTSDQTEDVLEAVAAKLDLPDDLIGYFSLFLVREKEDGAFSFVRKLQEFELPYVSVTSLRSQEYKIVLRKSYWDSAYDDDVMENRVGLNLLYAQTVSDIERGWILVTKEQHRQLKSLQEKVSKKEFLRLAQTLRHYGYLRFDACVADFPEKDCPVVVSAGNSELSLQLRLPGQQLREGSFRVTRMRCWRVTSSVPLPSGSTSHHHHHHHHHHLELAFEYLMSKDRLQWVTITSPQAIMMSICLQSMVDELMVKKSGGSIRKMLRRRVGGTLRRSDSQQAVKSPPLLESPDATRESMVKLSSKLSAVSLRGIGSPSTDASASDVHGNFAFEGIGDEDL
The experiment can be described thus: ITC.

The target of experiment [7] is SNX17 full length (residue 1-470) with an intramolecular decaHis tag (human) (UniProt Q15036). The experiment is described as follows: ITC; APP or LRP1 peptide at 250 μM injected into 20 μM SNX17 FL or SNX17ΔC; 13 x 3.22 μL; 10 °C; 500 mM NaCl, 100 mM Tris pH 8.0, 5% glycerol; single site binding model.
The target of experiment [8] is SNX17ΔC (residue 1-390) with an intramolecular decaHis tag (human) (UniProt Q15036). The experiment is described as above.
Experiment [9] has as its target SNX17 full length (residue 1-470) with an intramolecular decaHis tag (human) (UniProt Q15036). The experiment can be described thus: ITC; Microcal PEAQ, 10 °C, 500 mM NaCl, 100 mM Tris pH 8.0, 5% glycerol; 250 µM APP or LRP1 peptide, or 2 mM SNX17 tail peptide, injected into 20 µM SNX17 FL or SNX17ΔC; single site binding model.

For the molecule “VPS35L-GFP (from UniProt Q7Z3J2-1) K283E”, the ratio to parent was determined as 0.95 in [1], 0.88 in experiment [2] and 0.97 in [3].
For “VPS35L-GFP (from UniProt Q7Z3J2-1) R248A” the same measures were 1, 1.1 and 1.1.
On to “VPS35L-GFP (from UniProt Q7Z3J2-1) W280A”, for which the ratio to parent in [1] was 0.75; in experiment [2], 0.73; in experiment [3] it was 0.62.
On to SASDVHGNFAFEGIGDEDL [synthetic peptide of the SNX17 tail (452-470)], for which the Kd worked out at 116 µM in [4] and 189 µM in experiment [5].
On to NGYENPTYKFFEQM [APP cargo recognition peptide (755-768)], for which the Kd in experiment [6] worked out at 14.8 µM; in [4], 4.74 µM; in experiment [7], 16 µM; in experiment [8], 7.03 µM. Moreover, the fold lower affinity than for SNX17ΔC in experiment [9] stood at 2 fold.
Take VEIGNPTYKMYEGG [LRP1 cargo recognition peptide (4466-4479)]: the Kd in experiment [6] was 13.6 µM; in experiment [4], 3.64 µM; in experiment [7] it was 14.3 µM; in [8] it was 4.6 µM. For the same molecule, in experiment [9], the fold lower affinity than for SNX17ΔC was 2 fold.
